Laboratory results as given in the Immune Epitope Database (IEDB).
pIC50, pKd: −log10 of the molar value.

Tests used:
HLA-A*11:01 [1] = test: IEDB peptide-MHC binding, purified MHC/competitive/fluorescence; ≥ and ≤ were set here for values at or beyond the usual limits of such assays
HLA-A*03:01 = test: IEDB peptide-MHC binding, purified MHC/direct/fluorescence; filed as Kd, often an IC50 or EC50 that approximates it; ≥ and ≤ were set here for values at or beyond the usual limits of such assays
HLA-A*11:01 [2] = test: as above
HLA-A*31:01 [3] = test: IEDB peptide-MHC binding, purified MHC/competitive/fluorescence; filed as Kd, often an IC50 or EC50 that approximates it; ≥ and ≤ were set here for values at or beyond the usual limits of such assays
HLA-A*01:01 = test: IEDB peptide-MHC binding, purified MHC/direct/fluorescence; filed as Kd, often an IC50 or EC50 that approximates it; ≥ and ≤ were set here for values at or beyond the usual limits of such assays
HLA-A*02:01 [4] = test: as above
HLA-A*31:01 [5] = test: as above
HLA-A*69:01 = test: as above
HLA-B*08:01 = test: as above; settings: source organism: Mammarenavirus lassaense
HLA-B*18:01 = test: as above
HLA-B*27:05 = test: as above
HLA-B*40:01 = test: as above
HLA-B*44:02 = test: as above; settings: source organism: Mammarenavirus lassaense
HLA-B*48:01 = test: as above
HLA-B*58:01 [6] = test: as above
HLA-B*15:17 = test: as above
HLA-B*57:01 [7] = test: IEDB peptide-MHC binding, purified MHC/competitive/radioactivity; filed as Kd, often an IC50 or EC50 that approximates it; ≥ and ≤ were set here for values at or beyond the usual limits of such assays
HLA-B*58:01 [8] = test: as above
HLA-A*68:02 = test: IEDB peptide-MHC binding, purified MHC/direct/fluorescence; filed as Kd, often an IC50 or EC50 that approximates it; ≥ and ≤ were set here for values at or beyond the usual limits of such assays; settings: source organism: Giardia lamblia ATCC 50803
HLA-B*07:02 = test: as above; settings: source organism: Giardia lamblia ATCC 50803
HLA-B*15:01 = test: as above; settings: source organism: Giardia lamblia ATCC 50803
HLA-B*46:01 = test: as above; settings: source organism: Giardia lamblia ATCC 50803
HLA-B*57:01 [9] = test: as above
HLA-A*32:01 = test: IEDB peptide-MHC binding, purified MHC/competitive/radioactivity; filed as Kd, often an IC50 or EC50 that approximates it; ≥ and ≤ were set here for values at or beyond the usual limits of such assays; settings: source organism: Dengue virus 2 Peru/IQT2913/1996
HLA-A*02:01 [10] = test: IEDB peptide-MHC binding, purified MHC/competitive/fluorescence; ≥ and ≤ were set here for values at or beyond the usual limits of such assays; settings: source organism: Zaire ebolavirus
[11] = source organism: Sudan ebolavirus
[12] = source organism: Vibrio vulnificus
[13] = source organism: Mammarenavirus lassaense
[14] = source organism: Dengue virus 4 Philippines/H241/1956
[15] = source organism: Mammarenavirus juninense
[16] = source organism: Giardia lamblia ATCC 50803
[17] = source organism: Yellow fever virus 1899/81
[18] = source organism: Dengue virus 2 Peru/IQT2913/1996
[19] = source organism: Dengue virus 1 Brazil/97-11/1997

With DAASSRITK the pIC50 (HLA-A*11:01 [1]; [11]) was ≤ 3.92.
With ASILSRMAY the pKd (HLA-A*03:01; [12]) was 6.01, the pKd (HLA-A*11:01 [2]; [12]) was 8.13 and the pKd (HLA-A*31:01 [3]; source organism: Vibrio vulnificus YJ016) was ≤ 4.70.
With NPLPNQDND the pIC50 (HLA-A*11:01 [1]; [11]) was ≤ 3.79.
FVRSSPANF was tested, and the pKd (HLA-A*01:01; [13]) was ≤ 4.70, the pKd (HLA-A*02:01 [4]; [13]) was ≤ 4.70 and the pKd (HLA-A*03:01; [13]) was ≤ 4.70. The pKd (HLA-A*11:01 [2]; [13]) was ≤ 4.70, the pKd (HLA-A*31:01 [5]; [13]) was ≤ 4.70 and the pKd (HLA-A*69:01; [13]) was ≤ 4.70. The pKd (HLA-B*08:01) was 5.68, the pKd (HLA-B*18:01; [13]) was ≤ 4.70 and the pKd (HLA-B*27:05; [13]) was ≤ 4.70. The pKd (HLA-B*40:01; [13]) was ≤ 4.70, the pKd (HLA-B*44:02) was ≤ 4.70 and the pKd (HLA-B*48:01; [13]) was ≤ 4.70. For the same sequence, the pKd (HLA-B*58:01 [6]; [13]) was ≤ 4.70.
In the case of RTLGSFTWF, the pKd (HLA-B*15:17; [13]) was ≥ 9.00 and the pKd (HLA-B*58:01 [6]; [13]) was 7.86.
KTSLCLMMML showed a pKd (HLA-B*57:01 [7]; source organism: Dengue virus 3 China/80-2/1980) of 7.73.
TASGKLVTQW was tested, and the pKd (HLA-B*57:01 [7]; [14]) was 5.96 and the pKd (HLA-B*58:01 [8]; [14]) was 7.65.
KLNKFISPK showed a pKd (HLA-A*03:01; [15]) of 6.65 and a pKd (HLA-A*31:01 [3]; [15]) of 7.59.
For RIGGVLIFR, the pKd (HLA-A*01:01; [16]) was ≤ 4.70, the pKd (HLA-A*02:01 [4]; [16]) was ≤ 4.70 and the pKd (HLA-A*03:01; [16]) was 7.16. The pKd (HLA-A*11:01 [2]; [16]) was 7.49, the pKd (HLA-A*31:01 [5]; [16]) was 7.96 and the pKd (HLA-A*68:02) was ≤ 4.70. For the same sequence, the pKd (HLA-A*69:01; [16]) was ≤ 4.70, the pKd (HLA-B*07:02) was ≤ 4.70 and the pKd (HLA-B*15:01) was ≤ 4.70. For the same sequence, the pKd (HLA-B*18:01; [16]) was ≤ 4.70, the pKd (HLA-B*27:05; [16]) was ≤ 5.30 and the pKd (HLA-B*40:01; [16]) was ≤ 4.70. The pKd (HLA-B*46:01) was ≤ 4.70, the pKd (HLA-B*48:01; [16]) was ≤ 4.70 and the pKd (HLA-B*57:01 [9]; [16]) was ≤ 4.70. It also gave a pKd (HLA-B*58:01 [6]; [16]) of 5.22.
With KSAHGSPTF the pKd (HLA-B*15:17; [17]) was 8.31 and the pKd (HLA-B*57:01 [9]; [17]) was 5.90.
RLSAAIGKAW showed a pKd (HLA-B*58:01 [8]; source organism: Dengue virus 1 Singapore/S275/1990) of 8.21.
LSSTRVPNYN showed a pKd (HLA-B*57:01 [7]; [14]) of 5.22 and a pKd (HLA-B*58:01 [8]; [14]) of 6.69.
KSYAQMWSL showed a pKd (HLA-A*32:01) of 8.20, a pKd (HLA-B*57:01 [7]; [18]) of 8.25 and a pKd (HLA-B*58:01 [8]; [18]) of 8.40.
Work on WSSFKKNGAI yielded a pKd (HLA-B*57:01 [7]; [19]) of 5.99 and a pKd (HLA-B*58:01 [8]; [19]) of 5.27.
AVSSGKNIK was tested, and the pIC50 (HLA-A*02:01 [10]) was ≤ 3.79 and the pIC50 (HLA-A*11:01 [1]; source organism: Zaire ebolavirus) was 4.26.
